Source: patent US5597798A, “Taxol and epidermal growth factor used to enhance treatment of ovarian cancer” (The Regents of the University of California, priority 1994, dated 1997)

Legend:
[1] = system: 2008/C13* cells; assay: Morphologic changes induced by EGF (light microscopy of colonies); format: cell-based, human; conditions: 2 h EGF exposure
Text: (§1) The colonies formed by the COLO 316 cells appeared somewhat denser.

[2] = system: 2008 cells; assay: as above; format: cell-based, human; conditions: 10 nM EGF for 2 hs, inspected after 10 days
Text: as §1

[3] = system: COLO 316 cells; assay: as above; format: cell-based, human; conditions: 10 nM EGF for 2 hs, inspected after 10 days
Text: as §1

[4] = system: 2008 human ovarian carcinoma cells; assay: Colony forming assay, effect of EGF on sensitivity to cytotoxic agents; format: cell-based; conditions: for survival, % of control cells treated with DDP alone: DDP and EGF together
[5] = parameters: species or system mice; conditions: mouse, in vivo
Protocol: For nephrotoxicity studies, 72 h after treatment, mice were anesthetized and 1.5 ml of blood was sampled by cardiac puncture. Plasma creatinine and blood urea nitrogen (BUN) levels were used to measure toxicity and were determined by an enzymatic method previously described (Kulpman et al., J. Clin. Chem. Clin. Biochem. 28(11): 835 (1990)).

[6] = system: 2008 tumor xenografts; assay: Effect of EGF on cisplatin toxicity against tumor xenografts in athymic mice; format: in vivo, athymic mice (nu/nu)
Protocol: For these studies, 3 to 4 week old female athymic mice (nu/nu) from BALB/c origin were used which were supplied by Harlan Sprague Dawley, Inc. (Indianapolis, Ind.). The mice were kept in a laminar flow hood at 28° C. and fed standard mouse diet and water ad libitum.
Tumor xenografts were established from 2008 cells by harvesting confluent cell cultures by trypsinization and resuspending the cells in RPMI 1640 medium at 2.5×10^7 cells per ml. From this suspension, 0.2 ml aliquots containing 5×10^6 cells were injected s.c. on each shoulder of the athymic mice. In each mouse, two tumors were followed and tumor volumes were determined using the formula (length×width^2)/2 (Giavazzi et al., Cancer Res. 46:1928 (1986) and Tomayko & Reynolds Cancer Chemother. Pharmacol. 24:148 (1989)).
In all groups, treatment was administered 24 hours after the inoculation with tumor cells.
Tumor growth of each tumor in each animal was expressed as plot of in(tumor volume) as a function of time. The regression line of the in(tumor volume) versus time plot was calculated by using the method of least squares. The intercept and slope were obtained and used to calculate the time each tumor required to reach an arbitrarily defined volume of 1 ml. This volume was chosen because most tumors in all treatment groups reached this endpoint. For comparisons between two groups the unpaired Student's T-test was used. […]

[7] = system: 2008/C13* cells; assay: Growth rate under EGF exposure; format: cell-based, human; conditions: 2 h or continuous exposure to 10 nM EGF
Text: (§2) During the first 5 days after cell seeding, cell growth was exponential. The doubling times of the 2008, 2008/C13*, and COLO 316 cells were 27.9, 28.2, and 29.2 hs, respectively.

[8] = system: 2008 cells; assay: Growth rate under EGF exposure; format: cell-based, human; conditions: 2 h or continuous exposure to 10 nM EGF
Text: as §2

[9] = system: COLO 316 cells; assay: Growth rate under EGF exposure; format: cell-based, human; conditions: 2 h or continuous exposure to 10 nM EGF
Text: as §2

[10] = 2 h exposure to EGF (1 h before and 1 h concurrent with DDP)
[11] = delay between 1 h EGF pre-treatment and 1 h DDP exposure

B1: EGF: Epidermal Growth Factor; murine EGF (Sigma) in clonogenic assays, 125I-labelled human recombinant EGF in binding assays (protein, UniProt P01133 23-1207, looked up)
Pro-epidermal growth factor: PQHWSCPEGTLAGNGNSTCVGPAPFLIFSHGNSIFRIDTEGTNYEQLVVDAGVSVIMDFHYNEKRIYWVDLERQLLQRVFLNGSRQERVCNIEKNVSGMAINWINEEVIWSNQQEGIITVTDMKGNNSHILLSALKYPANVAVDPVERFIFWSSEVAGSLYRADLDGVGVKALLETSEKITAVSLDVLDKRLFWIQYNREGSNSLICSCDYDGGSVHISKHPTQHNLFAMSLFGDRIFYSTWKMKTIWIANKHTGKDMVRINLHSSFVPLGELKVVHPLAQPKAEDDTWEPEQKLCKLRKGNCSSTVCGQDLQSHLCMCAEGYALSRDRKYCEDVNECAFWNHGCTLGCKNTPGSYYCTCPVGFVLLPDGKRCHQLVSCPRNVSECSHDCVLTSEGPLCFCPEGSVLERDGKTCSGCSSPDNGGCSQLCVPLSPVSWECDCFPGYDLQLDEKSCAASGPQPFLLFANSQDIRHMHFDGTDYGTLLSQQMGMVYALDHDPVENKIYFAHTALKWIERANMDGSQRERLIEEGVDVPEGLAVDWIGRRFYWTDRGKSLIGRSDLNGKRSKIITKENISQPRGIAVHPMAKRLFWTDTGINPRIESSSLQGLGRLVIASSDLIWPSGITIDFLTDKLYWCDAKQSVIEMANLDGSKRRRLTQNDVGHPFAVAVFEDYVWFSDWAMPSVMRVNKRTGKDRVRLQGSMLKPSSLVVVHPLAKPGADPCLYQNGGCEHICKKRLGTAWCSCREGFMKASDGKTCLALDGHQLLAGGEVDLKNQVTPLDILSKTRVSEDNITESQHMLVAEIMVSDQDDCAPVGCSMYARCISEGEDATCQCLKGFAGDGKLCSDIDECEMGVPVCPPASSKCINTEGGYVCRCSEGYQGDGIHCLDIDECQLGEHSCGENASCTNTEGGYTCMCAGRLSEPGLICPDSTPPPHLREDDHHYSVRNSDSECPLSHDGYCLHDGVCMYIEALDKYACNCVVGYIGERCQYRDLKWWELRHAGHGQQQKVIVVAVCVVVLVMLLLLSLWGAHYYRTQKLLSKNPKNPYEESSRDVRSRRPADTEDGMSSCPQPWFVVIKEHQDLKNGGQPVAGEDGQAADGSMQPTSWRQEPQLCGMGTEQGCWIPVSSDKGSCPQVMERSFHMPSYGTQTLEGGVEKPHSLLSANPLWQQRALDPPHQMELTQ
modifications: Pro-epidermal growth factor 125I-labelled; murine EGF also used
- morphologic response [1]: showed no morphologic response
- morphologic change of colonies [2]: marked scattering of the colonies and the formation of prominent dendritic processes
- morphologic change of colonies [3]: marked scattering of the colonies and the formation of prominent dendritic processes
- EGF concentration of maximal enhancement of DDP sensitivity [4, 10]: about 10 nM
- lowest EGF concentration that enhanced sensitivity to DDP [4, 10]: 0.4 nM
- survival, % of control cells treated with DDP alone ([4]; no cyclohexamide): 31±10%
- survival, % of control cells treated with DDP alone ([4]; pretreatment with cyclohexamide inhibiting protein synthesis by 90%): 47±8%
- effect of further increase in EGF concentration ([4]; EGF up to 100 nM): no additional change in sensitivity to DDP
- loss of EGF mediated increase in sensitivity to DDP [4, 11]: largely disappeared by 24 hs
- persistence of EGF mediated increase in sensitivity to DDP [4, 11]: at least 6 hs
- serum creatinine or BUN [5]: Neither treatment with EGF alone, cisplatin alone, or EGF plus cisplatin resulted in statistically significant increases in serum creatinine or BUN
- time required for tumors to reach a volume of 1 ml (in words) ([6]; 1 mg/kg EGF s.c. alone or with 15 mg/kg cisplatin i.p.): no effect on the time required for tumors to reach a volume of 1 ml
- final tumor volume ([6]; 1 mg/kg EGF s.c. and/or 15 mg/kg cisplatin i.p., 24 hours after inoculation): no effect on the final tumor volume
- effect on growth rate [7]: Neither a 2 h nor a continuous exposure to 10 nM EGF had any demonstrable impact on the growth rate
- effect on growth rate [8]: Neither a 2 h nor a continuous exposure to 10 nM EGF had any demonstrable impact on the growth rate
- effect on growth rate [9]: Neither a 2 h nor a continuous exposure to 10 nM EGF had any demonstrable impact on the growth rate
